# Results as given in the nanobody polyreactivity screen of Harvey et al. (2022).
# Test: yeast display, Sf9 membrane polyspecificity reagent, FACS + sequencing; frameworks hold sequencing errors
# Method in brief: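 Using colony PCR, genes from sorted yeast display clones were amplified, then sequenced on MiSeq at 2 × 250 and filtered by CDR length. The clones had been stained with 10% biotinylated, detergent-solubilized Sf9 membrane reagent for 1 hour at 4 °C and sorted by FACS into low and high (top ~1%) gates on anti-HA and streptavidin fluorescence. Polyreactivity labels come from the gate of origin.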
row,Sequence,polyreactivity (PSR sort gate)
1,QLQLVESGGGLVQAGGSLRLSCAASGSIFFNYTMGWYRQAPGNERELVAAINSSGGRTNYADSVKGRFTISRDNAKNTVYLQMNSLKPEDTAVYYCAAGQSRYRELEYWGQGTQVTVSS,low polyreactivity
2,QVQLVESGGGLVQAGGSLRLSCAASGFIFINYAMGWNRPAPGKERELVAAISSRGGSTYYADSVKGRFTISRDNAKNTVYLQMNSLKPEDTAVYYCNADQSFRIVTFDYWGQGTQVTVSS,high polyreactivity
3,QVQLVESGGGLVQAGGSLRLSCAATGRTFAVYAMGWYRQAPGKERELVAAISSGGSTYYADSVKGRFTIARDNAKNTVYLQMNSLKPEDTAVYYCTARWGYRRGYWGQGTQVTVSS,high polyreactivity
4,QVQLVESGGGLVQAGGSLRLSCDASGRTFIGYAMGWYRQAPGKERELVAAINWSGARTYYADSVKGRFTISRDNAKNTVYLQMNSLKPEDTAVYYCAAVPVTSQTKYGYWGQGTQVTVSS,high polyreactivity
5,QVQLVESGGGLVQAGGSRLLSCAASGGTFSFYAMGWYRQAPAKEREFVAAITASDGSTYYADSLTGRFTISRDNAKNTVYLQMNSLKPEDTAVYYCAADAYGYKFNSWVQGTQVTVSS,low polyreactivity
6,QVQLVESGGGLVQAGGSLRLSCAASGNTFVQNTMGWYRQAPGKERELVAAISSRGGSTYYADSVKGRFTISRDNAKNTVYLQMNSLKPEDTAVYYCAARSKVRRSYDYRGQGTQVTVSS,high polyreactivity
7,QVQLVESGGGLVQAGGSLRLSCAASGIIFGDYAMGWYRQAPGKERELVAGISITGDSTYYADSVKGRFTISRDNAKNTVYLQMNSLKPEDTAVSYCAAGWALIFDYWGQGTQVTVSS,low polyreactivity
8,QEQLQGSGGGLVQAGGSLRLTCAASGYIFQNVPMGWNRQAPGKERQLLAGIDNGTSTNYADSVNGRFTISRDNAKNTVYLQMNSLKPEDTAVYYCAAAGQADDTLGYWGQGTQVTVSS,low polyreactivity
9,QVQLVESGGGLVQAGGSLRLSCAASGSIFYPYAMGWYRQAPGKERELVATISSGVNTNYADSVKGRFTISRDNAKNTVYLQMNSLKPVDTAVYYCAARFRHSFRRGGGYNYDYWGQGTQVTVSS,high polyreactivity
10,QVHLVESGGGLVQAGGSLRLSCAASGRTFRYYAMGWYRPAPGKERELVAAISSSGDRTYYADSVKGRFTISRDNAKNTVYLQMNSLKPEDTSVYYCAADRGARGDYYWGQGTQVTVSS,high polyreactivity
11,HVQLVESGGGLVQAGGSLRLSCAASGRIFLRYAMGWYRQAPGKERELVAVISSGGSTYYADSVKGRFTISRDNAKNTVYLQMHSLKPEDSAVYYCAARRHDSRYQYDYWGQGTQVSVSS,high polyreactivity
12,QVQLVESGGGLVQAGGSLRLSCAASGRTFQYYAMGWYRQAPGKERELVAAITSGGSTYYADSVTGRFTISRDNAKYTVYLQLNSLKPEDTAVYYCDATFYYSGHDDYWGQGTLVTVSS,low polyreactivity
13,QVQLVESGGGLVQAGGSLRLSCAASVRNYGINVMVWYRQAPGKERELVAAISYRTGSTYYADSVKGRFTISRDNAKNTVYLQMNSLKPEDTAVYYCDALRSIRTAWYDYWGQGTQVTVSS,high polyreactivity
14,QVQLVESGGGLVQAGGSLRLSCAASGSIFYGYAMGWYRPAPGKERELVAAITSGGRTYYADSVKGRFTISRDNAKNTVYLQMNSLKPEDTAVYYCNKLNYWSVRYEYWGQGTQVTVSS,high polyreactivity
15,QVQLVESGGGLVQAGGSLRLSCAASGSTFRKYAMGWYRQAPGKERELVAAISRGGDSTYYADSVKGRFTISRENAKNTVYLQMNSLKPEDTAVYYCAADTRPGYSGFEYRGQGTQVTVSS,high polyreactivity
16,QVQLVESGGGLVQAGGSLRLSCAASGIIFRYNAMGWYRQAPGKARELVAALSFRGGSTRYADSVKGRCTISRDTATNTVYLQMNSLKPEDTAVYYCNAQRRTYIYDYWGQGTQVTVSS,high polyreactivity
17,QVQLVESGGGLVQAGGSLRLSSAASGLTLRTYAMGWYRQETGQERELVAAITSGGGSTYYADSVKGRFTISRDNSKNTVYLQLNSLNQEDTAFYYCAAKPVVRYVSFGYDYWGQGTDVTVSS,high polyreactivity
18,QVQLVESGGGLVQAGGSLRLSCAASGSTFVYNDMGWYRQAPGKEREFVAVINWSGGRTYADSVKGRFTISRDNAKNTVYLQMNSLKPEDTAVYYCNARRRTGYRPAMDYWGQGTQVTVSS,high polyreactivity
19,QVQLVESGGGLVQAGGSLSLSCAASGRIFRRYAMGWYRQAPGKERELVAAISRGGSTYYADSVKGRFTISRDNAKNTVYLQMISLKPEDTAVYYCAAYSQSTSFGGYDSWGQGTQVTVSS,high polyreactivity
20,QVQLVESGGGLVQAGGSLRLSCAASGSTLYYYVMGWYRQAPGKERELVAAISSSGDSTYYADSVKGRFTISRDNAKNTVYLQMTSLKPEDTAVYYCNAGWYFYGETTDDYWGQGTQVTVSS,low polyreactivity
21,QVQLVESGGGLVQAGGSLRLSCAASGSTLDSYAMGSYRQAPGKERELVAAISGSGGSTYYADSVKGRFTISRDNAKNTVYLEMNSLKPEDTAVYYCDTDYSTQTLGYWYDYWGQGTQVSVSS,low polyreactivity
22,QVQLVESGGGLVQAGGSLRLSCAASGYIFWSNTMGWYRQAPGKERELVAAISQSTASTYYADSVKGRFTISRDNAKNTVYLQMNSLKPEDTAVYYCAAYYNFGDYEYDYWGQGTQVTVSS,low polyreactivity

row,Sequence,polyreactivity (PSR sort gate)
1,QFQLVESGGGLVQARGRLRLSCAASGSIFSYNAMGWYRQAPGKERELVARISSSGSTNYADSVKGRFTISRDNAKNTVYIQMNSLKPEDTAVYYCNKDPYWPSWTRRRREYYYWGQGTQVTVSS,high polyreactivity
2,QVQLVESGGVLVQAGGSLRLSCAASGRIFPYYAMGWYRQAPGKEREMVAAINSGGSTYYADSVKGRFTISRDNAKNTVYLQMNSLKPEDTAVYYCNADVLFEDGFFWDDYWGQGTQVTVSS,low polyreactivity
3,QVQLVESGGGLVQSGGSLRLSCAASGSTFVSYDMGWYRQAPGKERELVADISWSGVSTYADSVKGRFTNSRDNAKNTVYLQMNSLKPEDTAVYYCAKDCDLYQRGGYYWGQGTQVTVSS,low polyreactivity
4,QVQLVESGGALVQAGGSLRLSCAASGSILDPKAMGWYRQAPGKERELVASISRGDNTYYADSVKGRFTISRDNAKNTVYLQMNSLKPEDSAVYYCAADYSWVVWHDYWGQGTQVTVSS,low polyreactivity
5,QVQLVESGGGLVQAGGSLRLSCAASGRTLVPYAMGWYRQAPGKERELVAAINSSGGSTYYADSVKGRFTISRDNEKNTVYLQMNSLKPEDTAVYYCNVQSVHFRLWKDNYWGQGTQVTVSS,high polyreactivity
6,QVQLVESGGGLVQAGGSLRLSCAASGSTFVSYAMGWYRQAPGKERELVAAITWRGDSTYYADSVKGRFTISRDNAKNTVYLQMNSLKPEDTAVYYCAADGRSWRYYSPYYYWGQGTQVTVSS,low polyreactivity
7,QVQLVESGGGLVQAGGSLRLSCAASGSILNAYAMGWYRQAPGKERELVAAITGSDGSTYYADSVKGRFTISRDNAKNTVYLQMNSLKPEDTAVYYCNADYSQPVYWWLDDYWGHGTQVTVSS,low polyreactivity
8,QVQLVESGGGLVKAGGSLRLSCAASGLTFAINTMGWYRQSRGKERELVAAITGSGGSTYYADSVKGRFTISRDNAKNTVYLQMNSLKPEDSAVYYCAAELLYVQGYAMDYWGQGTQVTVSS,low polyreactivity
9,QVQLVESGGGLVQAGGSLRLSCAASGFSFYYNTMGWYRQAPWTERELVAAITRSFGSTYYADSVKGSFTIARDHAQNTVYVQMNSLKPEDTAVYFCAARAYYFPKLPADYYWGQGTQVSVSS,high polyreactivity
10,QVQLVESGGGLVQAGGSLRLSCAASGRIFLDYAMGWYRQAPGKERELVAAIRYSGVGTYYADSVKGRFTISRDNAKNTVYLQMNSLKPEDTAVYYCNAVTKVGYLRRRDYWGQGTQVTVSS,high polyreactivity
11,QVQLVESGGGLVQAGGSLRLSCAASGRIFFTYTMGWYRQAPGKERELVAAITGGGARTYYADSVKGRFTISRDNSKNTVYLQMNSLKPEDTAVYYCAKGWQRIGFYYWGQGTQVTVSS,high polyreactivity
12,QVQLVESGGGLVQAGGSLRLSCAASGRIFDQNAMGWYRQAPGKERELVAAITWSGGSTNYADSVKGRFTISRDNAKNTVYLQMNSLKPEDTAVYYCATDGKPSFYSFDYWGQGTQVTVSS,low polyreactivity
13,QVQLVESGGGLVQAGGSLRLSCAASGITFHPYALGWYRQAPGKERELVARIRSTGSTNYADSVKGRFTISRDNAKNTVYLQMNSLKPEDTAVYYCAATFRTGWRPYSFYYWGQGTQVTVSS,high polyreactivity
14,QVQLVESGGGLVQAGGSLRLSCAASGFTFSPNAMGGYRQAPGKERELVAAISKRGASTYYADSVKGRFTISRDNAKNTVYLQMNSLKPEDTAVYYCNVGASARKPYDYWGQGTQVTVSS,high polyreactivity
15,QVQLVESGGGLVKAGGSLRLSCGASGSIFDFYVMGWYRQAPGKERELVGAISSGGSTYYADSVKGRFTISRDNAKHTVYVQMNSLKPADTAVYYCAAYPEYVSGAWYDYWGQGTQVTVSS,low polyreactivity
16,QVQLVESGGGLVQAGGSLRLSCAASGSIFRVYAMGWYRQAPGKERELVAAISTRGGSTYYADSVKGRFTISRDNAKNTVYLQMNSLNPEDTAVYYCAKRWPQYPDYKPMYYWGQGTQVTVSS,high polyreactivity
17,QVQLVESGGGLVQAGGSLRLSCASSGRNFYSYVMGWYRQAPGKERELVAAITRSGGTTYYADSVKGRITISRDNAKNTVYLEMYSLKPEDTAVYYCAAYVGGIRYYSWGQGTQVIVSS,high polyreactivity
18,QVQLVESGGGLVQAGGSLRLSCAASGSIFYYNTMGWYRQAPGKERELVAAIRSSSGRTYYADSVKGRFTISRDNAKNTVYLQMNSLKPEDTAVYYCATVHSYTIQRYDYWGQGTQVTVSS,high polyreactivity
19,QVQLVESGGGLVQAGGSLRLSCAACGSTFGYNAMGWYRQAPGKERELVADISWSGGTTYYADSVKGRFTISRDNAKNTVYLQMNSLKPEDTAVYYCNARYPDRPVQGWRVEVDYWGQGTQVTVSS,high polyreactivity
20,QVQLVESGGGLVQAGGSLRLSCAASGNTFVDYAMGWYRQAPGKERELVAAISDGGSTNYADSVKGRFTISRDNAKNTVYLQMNSLKPEDTAVYYCAKDELYIPGVWPYYEYDYWGQGTQLTVSS,low polyreactivity
21,QVQLVESGGGLVQAGGSLRLSCAASGYTFLVNAMGWYRQAPGKERELVAAISSGGSTYYADSVKGRFTISRDNAKNTVYLQMNSLKPEDTAVYYCAAPTDFLFWEFDYWGQGTQVTVSS,low polyreactivity
